Source: US9012166B2, “Method for assaying histone methylation enzyme activity” (Kyushu Institute of Technology, priority 2010, dated 2015)
*: point of attachment. AMC = Cc1cc(=O)oc2cc(N*)ccc12

How the values were obtained:
[1] = biological target: T1, Set9 (His-Set9, His-Set7/9) (Homo sapiens, UniProt Q8WTS6); experiment: Substrate specificity / methylation of peptidyl MCAs by Set9; assay type: biochemical; settings: for methylation of peptidyl MCA by Set9: Example 6, His-Set9 0-1.5 μg/μL, right panel of FIG. 14; for methylation of peptidyl MCA by His-Set7/9: Example 13, AMC and peptidyl MCA fluorescence, FIGS. 25 and 26
T1 sequence (Q8WTS6 1-366): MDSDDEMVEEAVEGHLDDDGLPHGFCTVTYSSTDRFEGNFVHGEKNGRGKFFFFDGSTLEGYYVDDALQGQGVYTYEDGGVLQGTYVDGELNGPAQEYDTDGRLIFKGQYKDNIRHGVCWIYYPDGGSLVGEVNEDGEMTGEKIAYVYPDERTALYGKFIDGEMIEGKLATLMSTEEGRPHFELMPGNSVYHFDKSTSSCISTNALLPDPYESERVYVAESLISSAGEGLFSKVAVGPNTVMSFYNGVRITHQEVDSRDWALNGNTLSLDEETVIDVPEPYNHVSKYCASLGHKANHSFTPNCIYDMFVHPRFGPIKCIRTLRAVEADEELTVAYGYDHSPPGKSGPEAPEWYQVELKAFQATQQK
Procedure: When Set9 was adopted as a histone methyltransferase, the following method was used. 10 μL of 2×HMT buffer (100 mM Tris-HCl (pH 8.5), 20 mM MgCl2, 40 mM KCl, 20 mM 2-mercaptoethanol, 500 mM sucrose), 2 μL of a BSA solution (30 μg/mL), 3 μL of His-Set9 (0, 0.33 to 10 μg/μL), and 1 μL of distilled water were mixed and then incubated at room temperature for 1 hour. Then, 2 μL of SAM (10 mM) and 2 μL of a peptidyl MCA solution (0.6 mM) were added thereto, which was then incubated at 37° C. for 1 hour. Thereafter, 30 μL of a trypsin solution (20 mg/mL) was added thereto, followed by incubation at 37° C. for 15 minutes. Then, the fluorescence intensity of the solution was measured at an excitation wavelength (λex) of 390 nm and a fluorescence wavelength (λem) of 460 nm. The final concentration of His-Set9 during the measurement of fluorescence intensity was 0, 0.05, 0.15, 0.5, or 1.5 μg/μL. The results of the assay for measuring histone methyltransferase activity are shown in the right panel of FIG. 14.
When Set9 was adopted as a histone methyltransferase, the following method was used. 10 μL of 2×HMT buffer (100 mM Tris-HCl (pH 8.5), 20 mM MgCl2, 40 mM KCl, 20 mM 2-mercaptoethanol, 500 mM sucrose), 0.4 μL of a BSA solution (150 μg/mL), 5.9 μL of His-Set9 (0, 0.051, 0.17, 0.51, 1.7 μg/μL), and 1.7 μL of distilled water were mixed and then incubated at room temperature for 1 hour. Then, 1 μL of SAM (20 mM) and 1 μL of a peptidyl MCA solution (1.2 mM) were added thereto, which was then incubated at 37° C. for 1 hour. Thereafter, 30 μL of a trypsin solution (20 mg/mL) was added thereto, followed by incubation at 37° C. for 15 minutes. Then, the fluorescence intensity of the solution was measured at an excitation wavelength (λex) of 390 nm and a fluorescence wavelength (λem) of 460 nm. The final concentration of His-Set9 during the measurement of fluorescence intensity was 0, 0.015, 0.05, 0.15, or 0.5 μg/μL. The results of the assay for measuring histone methyltransferase activity are shown in the right panel of FIG. 16.
When Set7/9 was adopted as a histone methyltransferase, the following method was used. 10 μL of 2×HMT buffer (100 mM Tris-HCl (pH 8.5), 20 mM MgCl2, 40 mM KCl, 20 mM 2-mercaptoethanol, 500 mM sucrose), 0.4 μL of a BSA solution (150 μg/mL), 4 µL of His-Set7/9 (0, 0.025 to 0.75 μg/μL), and 3.6 μL of distilled water were mixed and then incubated at room temperature for 1 hour. Then, 1 μL of SAM (final concentration: 0.1 mM) and 1 μL of a peptidyl MCA solution (1.2 mM) were added thereto, which was then incubated at 37° C. for 1 hour. Thereafter, 30 μL of a trypsin solution (20 mg/mL) was added thereto, followed by incubation at 37° C. for 15 minutes. Then, the fluorescence intensity of the solution was measured at an excitation wavelength (λex) of 330 nm and a fluorescence wavelength (λem) of 380 nm or at an excitation wavelength (λex) of 390 nm and a fluorescence wavelength (λem) of 460 nm. The final concentration of His-Set7/9 during the measurement of fluorescence intensity was 0, 0.005, 0.015, 0.05, or 0.15 μg/μL.

[2] = biological target: T2, Set9 (Homo sapiens, UniProt Q8WTS6); experiment: Western blot evaluation of histone methyltransferase inhibitor, Set9; assay type: biochemical; settings: FIG. 17
T2 sequence (Q8WTS6 1-366): T1 sequence (Q8WTS6 1-366)
Procedure: To examine whether the activity of a histone methyltransferase inhibitor could be evaluated by an assay for measuring histone methyltransferase activity using a peptidyl MCA, the assay for measuring histone methyltransferase activity was attempted. However, the activity of gliotoxin as a histone methyltransferase inhibitor was evaluated by Western blot, prior to the assay for measuring histone methyltransferase activity. Gliotoxin is known not to inhibit the methylation activity of Set9 but to inhibit the methylation activity of G9a. […] The following assay for measuring histone methyltransferase activity was carried out in order to examine whether the same results as those from the Western blot could also be obtained from the assay for measuring histone methyltransferase activity.

Ac-ARTK-MCA (Ac-ARTK-{AMC}; SMILES CC(=O)N[C@@H](C)C(=O)N[C@@H](CCCNC(=N)N)C(=O)N[C@H](C(=O)N[C@@H](CCCCN)C(=O)Nc1ccc2c(C)cc(=O)oc2c1)[C@@H](C)O; listed as Homo sapiens) [Ac-histone H3 (1-4)-MCA]
methylation of peptidyl MCA by Set9 [1]: methylation often occurred

CN1C(=O)[C@]23CC4=CC=C[C@H](O)[C@H]4N2C(=O)[C@@]1(CO)SS3 [gliotoxin]
inhibition of the methylation of Set9 (Western blot) [2]: did not inhibit

Ac-KRSK-MCA (Ac-KRSK-{AMC}; SMILES CC(=O)N[C@@H](CCCCN)C(=O)N[C@@H](CCCNC(=N)N)C(=O)N[C@@H](CO)C(=O)N[C@@H](CCCCN)C(=O)Nc1ccc2c(C)cc(=O)oc2c1; listed as Homo sapiens) [Ac-ERα (299-302)-MCA]
methylation of peptidyl MCA by His-Set7/9 [1]: methylates

Ac-ARTKQTARK-MCA [Ac-histone H3 (1-9)-MCA]
methylation of peptidyl MCA by Set9 [1]: little methylation occurred | methylation of peptidyl MCA by His-Set7/9 [1]: does not methylate

Ac-ARK-MCA (Ac-Ala-Arg-Lys-{AMC}; SMILES CC(=O)N[C@@H](C)C(=O)N[C@@H](CCCNC(=N)N)C(=O)N[C@@H](CCCCN)C(=O)Nc1ccc2c(C)cc(=O)oc2c1; listed as Homo sapiens) [Ac-histone H3 (7-9/25-27)-MCA, acetyl-ARK (human histone H3 7-9 or 25-27)-MCA substrate]
methylation of peptidyl MCA by Set9 [1]: little methylation occurred

Ac-QTARK-MCA [Ac-histone H3 (5-9)-MCA]
methylation of peptidyl MCA by Set9 [1]: little methylation occurred

Ac-KAARK-MCA (Ac-KAARK-{AMC}; SMILES CC(=O)N[C@@H](CCCCN)C(=O)N[C@@H](C)C(=O)N[C@@H](C)C(=O)N[C@@H](CCCNC(=N)N)C(=O)N[C@@H](CCCCN)C(=O)Nc1ccc2c(C)cc(=O)oc2c1; listed as Homo sapiens) [Ac-histone H3 (23-27)-MCA]
methylation of peptidyl MCA by Set9 [1]: little methylation occurred

Ac-LKSK-MCA (Ac-LKSK-{AMC}; SMILES CC(=O)N[C@@H](CC(C)C)C(=O)N[C@@H](CCCCN)C(=O)N[C@@H](CO)C(=O)N[C@@H](CCCCN)C(=O)Nc1ccc2c(C)cc(=O)oc2c1; listed as Homo sapiens) [Ac-p53 (369-372)-MCA]
methylation of peptidyl MCA by Set9 [1]: methylation often occurred

Ac-QLATKAARK-MCA (Ac-QLATKAARK-{AMC}; SMILES CC(=O)N[C@@H](CCC(N)=O)C(=O)N[C@@H](CC(C)C)C(=O)N[C@@H](C)C(=O)N[C@H](C(=O)N[C@@H](CCCCN)C(=O)N[C@@H](C)C(=O)N[C@@H](C)C(=O)N[C@@H](CCCNC(=N)N)C(=O)N[C@@H](CCCCN)C(=O)Nc1ccc2c(C)cc(=O)oc2c1)[C@@H](C)O; listed as Homo sapiens) [Ac-histone H3 (19-27)-MCA]
methylation of peptidyl MCA by Set9 [1]: little methylation occurred
